Measured values: US20250360220A1, “REGULATION OF TAU USING PROTEIN-LIKE POLYMERS AND USES THEREOF” (NORTHWESTERN UNIVERSITY, priority 2022, published 2025)

Columns and labels:
K18 Tau = biological target: T1, K18 Tau (Homo sapiens, UniProt P10636); assay: Tau Kinetics Thioflavin T plate reader assay; type: biochemical; settings: for PLP or Pep/Tau %: Avg P amplitude divided by Avg Tau amplitude x 100; for PLP or Pep 10 hr (average amplitude, fluorescent intensity readout, of the Tau trace treated with that compound) / PLP or Pep 15 hr (average amplitude) / PLP or Pep 20 hr (average amplitude): K18 Tau 10 μM, heparin, thioflavin T, PBS; for Avg P Amplitude: average of the amplitudes at 10, 15 and 20 hr; for % amp change: change in amplitude relative to control Tau
T1 construct: K18 Tau was first expressed, collected, and purified; His tag (cleaved yes); made in house
Description: (§1) Tau Kinetics Thioflavin T Plate Reader Assay Protocol: First, controls and the effects of varying concentrations of K18 Tau were examined (FIG. 24). In FIG. 24, 1X Tau refers to 10 μM K18 Tau final concentration in the well with 100 μl total volume (i.e., 0.5× Tau refers to 5 μM K18 Tau and 2× Tau refers to 20 μM K18 Tau). Before PLPs were added to K18 Tau, the concentration at which the mimetic aggregative polymers would not activate Thioflavin T was evaluated. Based on the results depicted in FIG. 25, a PLP concentration of 1 μM was selected for further experimentations. […] Given the goal to investigate effects of the PLPs, it was determined that too high of a concentration could easily be adjusted, whereas too low of a concentration could result in a false negative with respect to impact.
PLPs incorporating SEQ ID: 4 (“TP4”), SEQ ID: 2 (“TP7”), or SEQ ID: 10 (“TP12”) as peptide sidechains were tested. The PLPs, K18 Tau (10 μM) and Thio T (Sigma) at a final concentration of 10 μM was added, and aggregation was induced by the addition of a freshly prepared heparin sodium salt solution (Santa Cruz) at a final concentration of 44 μg/ml. For non-induced controls, assay buffer was added in place of heparin solution to a final volume of 100 μl per well. Aggregation reactions were carried out at 37° C. with continuous shaking and monitored via ThT fluorescence (excitation, 444 nm; emission, 485 nm; cutoff, 480 nm) in a Spectramax M5 microplate reader (Molecular Devices). Readings were taken every 5 min for a minimum of 24 h.
Table C. Summary of results depicted in FIGS. 26, 28, and 29 in the event the graphical representations are difficult to ascertain. Values are rounded to the nearest whole number. Tau 10 hr refers to the average amplitude (fluorescent intensity readout) of an n=6 of the control Tau (meaning no peptide or polymer added, just heparin, thioflavin T, and PBS) trace at 10 hour. The same applies to Tau 15 hr and Tau 20 hr. Avg Tau amplitude refers to the average of the amplitudes at 10, 15, and 20 hr in the previous columns. As Tau is the control for each individual plate, and these readings were done on three separate plates, there are 3 different sets of average amplitudes. Similar to the aforementioned, PLP or Pep 10 hr refers to the average amplitude (n=6 for PLP and n=3 for peptide) of the Tau trace treated with that compound at 10 hours. Avg P amplitude refers to the average of the amplitude at the 3 times, or the average of the 3 previous columns. PLP or Pep/Tau % is the result of dividing the Avg P amplitude by Avg Tau amplitude and multiplying by 100. % amp change refers to the change in amplitude given by subtracting Tau average amplitude from P average amplitude and dividing by Tau average amplitude and multiplying by 100.

Circular dichroism = type: physicochemical; settings: 37° C.; for CD conformation of free peptides: before and after addition of heparin; for CD conformation of PLPs: Tris buffer pH 7.4
Description: The proteomimetic similarities were further investigated using circular dichroism. Samples tested included K18 Tau, PLPs having SEQ ID: 4, SEQ ID: 2, and SEQ ID: 10, as well as said PLPs with K18 Tau. Each of these samples were dissolved in Tris buffer (10 mM Tris, 50 mM NaF, 0.5 mM dithiothreitol) and pH was adjusted to 7.4. Samples were tested with and without the addition of heparin. For samples containing heparin, samples were incubated in the presence of 10 μM heparin sodium salt for 24 hours. Polymers and peptides were run at 37° C., at a concentration of 3 mg/10 ml and K18 Tau was run at 10 uM. Parameters were: 1 mm quartz cuvette, continuous scan at 10 nm/min over 260 to 200 nm, 3 acquisitions averaged for one trace.

[1] = STEM / dry state TEM of PLP homopolymers; type: physicochemical; settings: prepared in H2O
Description: Using standard STEM protocols, PLPs having SEQ ID: 2 or SEQ ID: 4 as peptide monomers were prepared in H2O and visualized. […] Further, from the results depicted in FIG. 17, the homopolymer the beta sheet forming nature was confirmed. After putting the PLPs in HEPES LLPS buffer and heating to 37° C. (i.e., body temperature), a time course established the fibrilization of the polymer on dry state TEM. The same fibrilization was seen on purified K18 Tau protein 24 hours after incubation with heparin in PBS as depicted in FIG. 19. The remarkably similar characteristics was a testament to the mimetic capabilities of the PLP.

[2] = Concentration dependence of polymer activation of Thioflavin T (no Tau); settings: 1 μM PLP, no Tau (FIG. 25)
Source text: FIG. 25: Concentration dependence of polymer activation of Thioflavin T. TP4: PLP homopolymer incorporating SEQ ID: 4 as peptide sidechains. TP7: PLP homopolymer incorporating SEQ ID: 2 as peptide sidechains. TP4 and TP7 controls: PLP homopolymer, thioflavin T, no heparin, and PBS. The remainder of controls were at baseline and were removed from this FIG. 25 to improve readability. ThioT control: no Tau, no heparin, thioflavin T and PBS. ThioT heparin control: no Tau, no PLPs, thioflavin T, heparin, and PBS. n=3.
as §1

[3] = Liquid-liquid phase separation (LLPS) of rhodamine labeled PLPs; type: physicochemical
Description: Solutions were dissolved in HEPES buffer: 10 mM HEPES buffer (pH 7.4) with 0.1 mM EDTA and 2 mM DTT, Media buffer: Dulbecco Modified Eagles Medium (high glucose) with 2 mM L-glutamine with 10% Fetal Bovine Serum, 1% Penicillin/Streptomycin, or water. Different crowding agents were also tested using HEPES buffer—PEG and heparin. For heparin, stock solutions of 10 μM of each rhodamine labeled PLP (using either SEQ ID: 4 or SEQ ID: 7 as peptide monomers) and 30 μM of heparin sodium salt were prepared in buffer and kept refrigerated. Before experiments, solutions were given at least 30 min to come to room temperature and experiments were carried out at room temperature. In the microscope room, 20 μL of PLP was added to 5 μL of heparin and mixed gently in a microcentrifuge tube. 5 μL of solution was immediately pipetted onto Fisherbrand glass microscope slides and coverslip applied. All reactions were visualized on Olympus BX53 Fluorescent Microscope using the 581 nm laser to monitor the rhodamine, as well as brightfield. LLPS occurred within 60 min of initiation.

[4] = system: Mouse striatal cells HdhQ7/7; assay: Cell permeability assay with rhodamine labeled PLPs (confocal imaging); type: cell-based; settings: incubated with the cells for 24 hours
Description: Mouse striatal cells HdhQ7/7 from Coriell Institute were plated in 4-chamber 35 mm round glass-bottom dishes at a density of 50,000 per well. Cells were incubated for 24 hours in a 5% CO2 atmosphere at 33° C. Rhodamine labeled PLPs, rhodamine dye, and vehicle control in 10% FBS DMEM medium without phenol red were incubated with the cells for 24 hours, respectively. The cell nuclei (stained with Hoechst) were accomplished using a 405 nm laser with a 15% laser power. The cell membrane (stained with Wheat Germ Agglutinin, Alexa Fluor 488 Conjugate) was accomplished using a 488 nm laser with a 12% laser power. Cell imaging for Rhodamine fluorescence was accomplished using a 581 nm laser with an 8% laser power.

[5] = HEPES buffer with heparin, room temperature

T1 sequence (P10636 561-685 limits assumed): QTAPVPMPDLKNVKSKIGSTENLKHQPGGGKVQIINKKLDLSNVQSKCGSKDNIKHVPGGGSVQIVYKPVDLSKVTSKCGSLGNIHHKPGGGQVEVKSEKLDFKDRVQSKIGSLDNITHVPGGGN

| PLP or Pep/Tau % (K18 Tau; 1 μM PLP/Pep) [%] | PLP or Pep 10 hr (average amplitude, fluorescent intensity readout, of the Tau trace treated with that compound) (K18 Tau; 1 μM PLP/Pep) | PLP or Pep 15 hr (average amplitude) (K18 Tau; 1 μM PLP/Pep) | PLP or Pep 20 hr (average amplitude) (K18 Tau; 1 μM PLP/Pep) | Avg P Amplitude (K18 Tau; 1 μM PLP/Pep) | % amp change (K18 Tau; 1 μM PLP/Pep) [%] | PLP or Pep/Tau % (K18 Tau; 10 μM PLP/Pep) [%] | PLP or Pep 10 hr (average amplitude, fluorescent intensity readout, of the Tau trace treated with that compound) (K18 Tau; 10 μM PLP/Pep) | PLP or Pep 15 hr (average amplitude) (K18 Tau; 10 μM PLP/Pep) | PLP or Pep 20 hr (average amplitude) (K18 Tau; 10 μM PLP/Pep) | Avg P Amplitude (K18 Tau; 10 μM PLP/Pep) | % amp change (K18 Tau; 10 μM PLP/Pep) [%] | Substance | CD conformation of free peptides (Circular dichroism) | Conformation by STEM [1] | Thioflavin T signal of the polymer [2] | Liquid-liquid phase separation [3, 5] | CD conformation of PLPs (Circular dichroism; after addition of heparin) | CD conformation of PLPs (Circular dichroism; before heparin was added) | Capability to permeate the striatal cells [4] | also measured |
| --- | --- | --- | --- | --- | --- | --- | --- | --- | --- | --- | --- | --- | --- | --- | --- | --- | --- | --- | --- | --- |
| 135 | 417 | 411 | 545 | 458 | 11 | 126 | 395 | 448 | 438 | 427 | 4 | DRVQIVYKRR [P7] | beta sheet formation | – | – | – | – | – | – | – |
| 143 | 730 | 936 | 961 | 876 | 44 | – | – | – | – | – | – | TP4: PLP generated from peptide monomers characterized by SEQ ID: 4 (VQIINKRR) | – | beta sheet conformations | significant signal | capable of liquid-liquid phase separation | beta sheet formation | random coil formations | demonstrated the capability to permeate the striatal cells | Liquid-liquid phase separation ([3]; HEPES buffer with PEG as crowding agent): induce LLPS phase condensates |
| 110 | 633 | 715 | 672 | 673 | 11 | – | – | – | – | – | – | TP7: PLP generated from peptide monomers characterized by SEQ ID: 2 (DRVQIVYKRR) | – | beta sheet conformations | negligible signal | capable of liquid-liquid phase separation | beta sheet formation | random coil formations | demonstrated the capability to permeate the striatal cells | – |
| 34 | 116 | 129 | 143 | 129 | −69 | 9 | 36 | 37 | 36 | 36 | −91 | TP12: PLP generated from peptide monomers characterized by SEQ ID: 10 (VQPINK) | – | – | – | – | beta sheet formation | random coil formations | – | Effect of inhibitor polymer on fibril formation of K18 Tau (K18 Tau; two concentrations, 1 μM and 10 μM, with heparin (FIG. 29)): significantly prevented fibril formation of K18 Tau |
| 177 | 588 | 558 | 657 | 601 | 46 | 129 | 417 | 497 | 395 | 436 | 6 | VQIINKRR [P4] | beta sheet formation | – | – | – | – | – | – | – |
| 182 | 605 | 555 | 693 | 618 | 50 | 140 | 584 | 413 | 424 | 474 | 15 | VQPINK [P12] | beta sheet formation | – | – | – | – | – | – | – |
